Blank lines part the entries; values can stand above or below the binder they belong to.
Experiments:
rNPR1-ANP complex [1] = target: T1, rNPR1-ANP complex (rat, UniProt P01160 124-151 (human entry), limits assumed); assay: ELISA, 1 µM IgG; design: unit not given here
T1 construct: rNPR1 antigen in the presence of ANP; also called rNPR1 + 100 nM ANP
T1 sequence: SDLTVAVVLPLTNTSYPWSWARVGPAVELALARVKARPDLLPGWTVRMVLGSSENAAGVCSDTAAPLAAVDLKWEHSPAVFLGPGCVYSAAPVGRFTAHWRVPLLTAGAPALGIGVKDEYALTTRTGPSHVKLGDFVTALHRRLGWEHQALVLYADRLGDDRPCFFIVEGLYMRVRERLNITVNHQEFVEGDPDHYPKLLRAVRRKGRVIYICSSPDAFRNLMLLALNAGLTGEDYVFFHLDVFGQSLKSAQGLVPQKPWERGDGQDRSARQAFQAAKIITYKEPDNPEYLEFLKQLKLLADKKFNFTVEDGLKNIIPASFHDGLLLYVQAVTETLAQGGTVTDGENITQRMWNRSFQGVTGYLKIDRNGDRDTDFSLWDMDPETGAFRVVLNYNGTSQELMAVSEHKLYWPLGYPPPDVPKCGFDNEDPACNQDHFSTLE
T1 sequence (peptide): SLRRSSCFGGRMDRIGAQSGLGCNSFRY

rNPR1-ANP complex [2] = target: T1, rNPR1-ANP complex; assay: ELISA, IgG titrated on coated antigen with ANP (250 fold molar excess), fluorescence [Cont.]
[3] = target: T2, human NPR3 in the presence of ANP (human, UniProt P17342 27-481; P01160 124-151, limits assumed); assay: as above
T2 construct: also called hNPR3 + 100 nM ANP
T2 sequence (looked up): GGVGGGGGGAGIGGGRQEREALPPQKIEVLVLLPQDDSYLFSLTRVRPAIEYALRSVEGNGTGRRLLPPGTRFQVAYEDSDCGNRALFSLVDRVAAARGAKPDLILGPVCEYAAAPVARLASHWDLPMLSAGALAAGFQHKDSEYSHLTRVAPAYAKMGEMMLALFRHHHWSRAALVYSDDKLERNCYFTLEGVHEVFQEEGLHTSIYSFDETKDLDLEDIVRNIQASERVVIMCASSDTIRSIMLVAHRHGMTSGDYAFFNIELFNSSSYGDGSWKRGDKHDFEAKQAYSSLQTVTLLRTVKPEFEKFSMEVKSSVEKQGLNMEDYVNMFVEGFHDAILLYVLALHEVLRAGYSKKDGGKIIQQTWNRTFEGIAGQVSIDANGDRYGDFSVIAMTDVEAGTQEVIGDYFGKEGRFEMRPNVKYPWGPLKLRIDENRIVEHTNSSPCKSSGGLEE
T2 sequence (peptide, looked up): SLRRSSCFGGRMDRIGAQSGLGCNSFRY

hNPR1-ANP complex = target: T3, hNPR1-ANP complex (human, UniProt P01160 124-151, limits assumed); assay: as above
T3 construct: hNPR1 antigen in the presence of ANP; also called hNPR1 + 100 nM ANP
T3 sequence: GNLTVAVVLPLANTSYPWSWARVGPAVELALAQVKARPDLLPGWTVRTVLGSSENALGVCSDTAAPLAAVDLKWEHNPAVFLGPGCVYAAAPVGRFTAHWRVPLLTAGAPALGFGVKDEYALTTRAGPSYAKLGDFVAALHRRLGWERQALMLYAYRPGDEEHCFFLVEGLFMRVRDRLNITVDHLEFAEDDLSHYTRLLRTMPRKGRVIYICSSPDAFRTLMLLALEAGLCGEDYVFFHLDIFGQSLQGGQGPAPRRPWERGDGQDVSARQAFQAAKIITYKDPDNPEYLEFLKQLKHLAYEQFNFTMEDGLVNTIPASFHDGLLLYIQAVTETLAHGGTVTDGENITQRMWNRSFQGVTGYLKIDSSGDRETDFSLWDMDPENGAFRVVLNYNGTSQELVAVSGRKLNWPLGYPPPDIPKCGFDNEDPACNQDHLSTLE
T3 sequence (peptide): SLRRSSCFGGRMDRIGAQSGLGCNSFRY

- ELISA binding at 1 µM IgG (rNPR1-ANP complex [1]): 3
- binding result (rNPR1-ANP complex [2]): no binding (tested: 1000 nM)
- binding result [3]: no binding (tested: 1000 nM)
B1: YY07 (IgG format) (antibody, V domains shown)
VH: EVQLVQSGAEVKKPGESLKISCKGSGYSFTSYWISWVRQMPGKGLEWMGIIYPGTSYTRYSPSFQGQVTISADKSISTAYLQWSSLKASDTAMYYCARGSLPGLLGFDHWGQGTLVTVSS
VL: QSVLTQPPSVSGAPGQRVTISCTGSSSNIGAGYDVHWYQQLPGTAPKLLIYGNSNRPNGVPDRFSGSKSGTSASLAITGLQAEDEADYYCQSYDSPTSSSVFGGGTKLTVLG
notes: also called YY07_LALA

- EC50 (read off the curve) (hNPR1-ANP complex): ~7 nM
B2: YY06 (IgG format) (antibody, V domains shown)
VH: EVQLLESGGGLVQPGGSLRLSCAASGFTFSSYAISWVRQAPGKGLEWVSAISGSGGSTYYAESVKGRFTISRDNSKNTLYLQMNSLRAEDTAVYYCARPYLGDRRSYGFDHWGQGTLVTVSS
VL: QSALTQPASVSGSPGQSITISCTGTSSDVGSYNLVSWYQQHPGKAPKLMIYEGSKRPSGVSNRFSGSKSGNTASLTISGLQAEDEADYYCSSYGFHIVVVVFGGGTKLTVLG
notes: also called YY06_LALA
